Our source for the Kd, binding result and MFI values is patent US20260209350A1 (Alector, published 2026).

The target of assay [1] is T1, human monomeric His tagged TREM2 protein (human, UniProt Q9NZC2 19-174).
T1 construct: also called hTREM2-HIS
T1 sequence: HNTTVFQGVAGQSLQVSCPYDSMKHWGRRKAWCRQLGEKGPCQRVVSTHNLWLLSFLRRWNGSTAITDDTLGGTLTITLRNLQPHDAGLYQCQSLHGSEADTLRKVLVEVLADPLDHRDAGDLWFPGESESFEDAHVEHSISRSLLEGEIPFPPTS
The assay can be described thus: ForteBio or MSD-SET, monovalent. For orientation: In BLI a coated tip is dipped into the sample, and binding shifts an interference pattern.

In assay [2] the target is T2, human TREM2 Fc fusion protein (human, UniProt Q9NZC2 19-174).
T2 construct: also called hTREM2-Fc; not shown: Fc part not specified
T2 sequence: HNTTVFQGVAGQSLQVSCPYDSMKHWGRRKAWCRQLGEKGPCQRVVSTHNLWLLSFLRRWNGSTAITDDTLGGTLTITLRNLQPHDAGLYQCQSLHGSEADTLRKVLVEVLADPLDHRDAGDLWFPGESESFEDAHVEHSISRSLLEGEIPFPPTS
Kind of assay: ForteBio or MSD-SET, avid.

The target of assay [3] is T3, mouse TREM2 Fc fusion protein (mouse, UniProt Q99NH8 19-171).
T3 construct: also called mTREM2-Fc; not shown: Fc part not specified
T3 sequence (looked up): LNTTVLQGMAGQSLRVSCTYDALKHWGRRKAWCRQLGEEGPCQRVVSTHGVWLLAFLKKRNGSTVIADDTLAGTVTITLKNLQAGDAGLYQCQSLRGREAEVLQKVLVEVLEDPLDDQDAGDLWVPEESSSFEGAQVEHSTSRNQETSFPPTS
The assay can be described thus: ForteBio or MSD-SET, avid.

The next assay deals with T4, mouse TREM2 on cells (mouse, UniProt Q99NH8 19-227).
T4 construct: whole, on cells; Used for the recombinant protein on BWZ/BW cells (with mouse DAP12) and for the native protein on mouse macrophages and dendritic cells; the cell type stands under assay; also called mTREM2; mTrem2
T4 sequence (looked up): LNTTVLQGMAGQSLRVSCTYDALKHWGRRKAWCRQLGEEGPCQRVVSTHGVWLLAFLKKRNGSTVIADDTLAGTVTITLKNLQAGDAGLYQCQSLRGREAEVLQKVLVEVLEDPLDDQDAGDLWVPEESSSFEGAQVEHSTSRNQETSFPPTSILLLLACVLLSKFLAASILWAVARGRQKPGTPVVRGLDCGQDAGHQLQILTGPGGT
The assay can be described thus: FACS, mTrem2 cells. On the technique in general: A flow cytometer gives signals particle by particle.

B1: Ab34 (antibody, human IgG1, V domains shown)
VH: QVQLVESGGGVVQPGRSLRLSCAASGFTFSSYGMHWVRQAPGKGLEWVAVISYDGSNKYYADSVKGRFTISRDNSKNTLYLQMNSLRAEDTAVYYCARDRGGEYVDFAFDIWGQGTMVTVSS
VL: DIQMTQSPSSLSASVGDRVTITCRASQSISSYLNWYQQKPGKAPKLLIYAASSLQSGVPSRFSGSGSGTDFTLTISSLQPEDFATYYCQQSDFPPWTFGGGTKVEIK
notes: human IgG1
For B1, the Kd – broadly, the equilibrium constant for the complex coming apart – in assay [1] came out at 27 nM; in assay [2] it was 0.706 nM. Further, the binding result in assay [3] was “no binding”.

B2: Ab54 (antibody, human IgG1, V domains shown)
VH: QVQLVQSGAEVKKPGASVKVSCKASGYTFTSYYMHWVRQAPGQGLEWMGIINPSGGSTSYAQKFQGRVTMTRDTSTSTVYMELSSLRSEDTAVYYCARGPGYTTALDYYYMDVWGKGTTVTVSS
VL: DIQMTQSPSSLSASVGDRVTITCRASQSINSYLNWYQQKPGKAPKLLIYAASSLQSGVPSRFSGSGSGTDFTLTISSLQPEDFATYYCQQSDDDPFTFGGGTKVEIK
notes: human IgG1
Regarding B2, the Kd is 3.02 nM in assay [1] and 0.5 nM in assay [2].

B3: Ab18 (antibody, human IgG1, V domains shown)
VH: QVQLQESGPGLVKPSETLSLTCTVSGGSISSYYWSWIRQPPGKGLEWIGSIYYSGSTNYNPSLKSRVTISVDTSKNQFSLKLSSVTAADTAVYYCARDGGGEYPSGTPFDIWGQGTMVTVSS
VL: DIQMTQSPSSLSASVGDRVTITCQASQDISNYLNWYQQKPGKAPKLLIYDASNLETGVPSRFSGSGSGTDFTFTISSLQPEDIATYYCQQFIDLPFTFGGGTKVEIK
notes: human IgG1
As to B3, the MFI with mouse TREM2 on cells came out at 5160 MFI. The dissociation constant Kd in assay [1] worked out at 6.77 nM; in assay [2] it was 0.513 nM.

B4: Ab19 (antibody, human IgG1, V domains shown)
VH: QVQLQESGPGLVKPSETLSLTCTVSGGSISSYYWSWIRQPPGKGLEWIGSIYYSGSTNYNPSLKSRVTISVDTSKNQFSLKLSSVTAADTAVYYCARDGGGEYPSGTPFDIWGQGTMVTVSS
VL: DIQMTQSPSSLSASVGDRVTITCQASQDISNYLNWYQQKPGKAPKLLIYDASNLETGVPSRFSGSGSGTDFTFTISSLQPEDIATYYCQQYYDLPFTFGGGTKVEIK
notes: human IgG1
Consider B4, for which the MFI with mouse TREM2 on cells was determined as 2300 MFI. Moreover, the Kd in assay [1] stood at 4.49 nM; in assay [2], 0.465 nM.

B5: Ab26 (antibody, human IgG1, V domains shown)
VH: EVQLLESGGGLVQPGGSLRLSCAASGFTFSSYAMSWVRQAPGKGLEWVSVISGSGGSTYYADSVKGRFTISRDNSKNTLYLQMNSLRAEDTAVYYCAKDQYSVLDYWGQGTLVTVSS
VL: EIVLTQSPATLSLSPGERATLSCRASQSVSSYLAWYQQKPGQAPRLLIYDASNRATGIPARFSGSGSGTDFTLTISSLEPEDFAVYYCQQEFDLPFTFGGGTKVEIK
notes: human IgG1
Consider B5, for which the values for the equilibrium dissociation constant (Kd) in assay [1] and in assay [2] were 3.6 nM and 0.481 nM, respectively.

B6: Ab6 (antibody, human IgG1, V domains shown)
VH: QVQLVQSGAEVKKPGASVKVSCKASGYTFTSYYMHWVRQAPGQGLEWMGIINPGGGSTSYAQKFQGRVTMTRDTSTSTVYMELSSLRSEDTAVYYCARGSPTYGYLYDPWGQGTLVTVSS
VL: EIVLTQSPATLSLSPGERATLSCRASQSVSSYLAWYQQKPGQAPRLLIYDASKRATGIPARFSGSGSGTDFTLTISSLEPEDFAVYYCQQRVNLPPTFGGGTKVEIK
notes: human IgG1
The molecule B6 yielded an MFI with mouse TREM2 on cells of 228 MFI. Besides, the Kd in assay [2] came out at 4.44 nM; in assay [3], 8.51 nM.

B7: Ab33 (antibody, human IgG1, V domains shown)
VH: QVQLVESGGGVVQPGRSLRLSCAASGFTFSSYGMHWVRQAPGKGLEWVAVISYDGSNKYYADSVKGRFTISRDNSKNTLYLQMNSLRAEDTAVYYCARAGGHLFDYWGQGTLVTVSS
VL: EIVLTQSPATLSLSPGERATLSCRASQSVSSYLAWYQQKPGQAPRLLIYDASNRATGIPARFSGSGSGTDFTLTISSLEPEDFAVYYCQQDSSFPPTFGGGTKVEIK
notes: human IgG1
B7: the Kd was 16 nM in assay [1] and 1.42 nM in assay [2]. In assay [3], the binding result was “no binding”.

B8: Ab87 (antibody, human IgG1, V domains shown)
VH: QVQLQESGPGLVKPSETLSLTCTVSGGSISSYYWSWIRQPPGKGLEWIGSIYYSGSTNYNPSLKSRVTISVDTSKNQFSLKLSSVTAADTAVYYCARHGWDRVGWFDPWGQGTLVTVSS
VL: EIVLTQSPATLSLSPGERATLSCRASQSVSRYLAWYQQKPGQAPRLLIYDASNRATGIPARFSGSGSGTDFTLTISSLEPEDFAVYYCQQYIFWPPTFGGGTKVEIK
notes: human IgG1
Consider B8, for which the MFI with mouse TREM2 on cells stood at 1230 MFI. The Kd worked out at 9.51 nM in assay [2] and 4.48 nM in assay [3].

B9: Ab62 (antibody, human IgG1, V domains shown)
VH: EVQLVQSGAEVKKPGESLKISCKGSGYSFTSYWIGWVRQMPGKGLEWMGIIYPGDSDTRYSPSFQGQVTISADKSISTAYLQWSSLKASDTAMYYCARAGHYDDWSGLGLDVWGQGTMVTVSS
VL: EIVLTQSPATLSLSPGERATLSCRASQSVSSYLAWYQQKPGQAPRLLIYDASKRATGIPARFSGSGSGTDFTLTISSLEPEDFAVYYCQQSSVHPYTFGGGTKVEIK
notes: human IgG1
Consider B9, for which the MFI with mouse TREM2 on cells worked out at 4750 MFI. Besides, the Kd in assay [1] stood at 14.2 nM; in assay [2], 0.772 nM.

B10: Ab31 (antibody, human IgG1, V domains shown)
VH: QVQLVESGGGVVQPGRSLRLSCAASGFTFSSYGMHWVRQAPGKGLEWVALIWYDGSNKYYADSVKGRFTISRDNSKNTLYLQMNSLRAEDTAVYYCARRRDGYYDEVFDIWGQGTMVTVSS
VL: DIQLTQSPSSLSASVGDRVTITCQASQDISNFLNWYQQKPGKAPKLLIYDASNLETGVPSRFSGSGSGTDFTFTISSLQPEDIATYYCQQPVDLPFTFGGGTKVEIK
notes: human IgG1
As for B10, the equilibrium dissociation constant (Kd) turned out to be 6.82 nM in assay [1] and 0.451 nM in assay [2]. In addition, in assay [3], the binding result was “no binding”.

B11: Ab3 (antibody, human IgG1, V domains shown)
VH: QVQLVQSGAEVKKPGSSVKVSCKASGGTFSSYAISWVRQAPGQGLEWMGGIIPIFGTANYAQKFQGRVTITADESTSTAYMELSSLRSEDTAVYYCAREQYHVGMDVWGKGTTVTVSS
VL: DIQMTQSPSSLSASVGDRVTITCQASQDISNYLNWYQQKPGKAPKLLIYDASNLATGVPSRFSGSGSGTDFTFTISSLQPEDIATYYCQQPFNFPYTFGGGTKVEIK
notes: human IgG1
Turning to B11, the equilibrium dissociation constant (Kd) turned out to be 14.2 nM in assay [1] and 0.49 nM in assay [2]. In assay [3], the binding result is given as “no binding”.

B12: Ab20 (antibody, human IgG1, V domains shown)
VH: QVQLQESGPGLVKPSETLSLTCTVSGGSISSYYWSWIRQPPGKGLEWIGSIYYSGSTNYNPSLKSRVTISVDTSKNQFSLKLSSVTAADTAVYYCARSGMASFFDYWGQGTLVTVSS
VL: EIVLTQSPGTLSLSPGERATLSCRASQSVSSDYLAWYQQKPGQAPRLLIYGASSRATGIPDRFSGSGSGTDFTLTISRLEPEDFAVYYCQQFSSHPFTFGGGTKVEIK
notes: human IgG1
Turning to B12, the MFI in the assay with mouse TREM2 on cells came out at 11200 MFI. The values for the Kd in assay [1] and in assay [2] were 3.62 nM and 0.658 nM, respectively.

B13: Ab72 (antibody, human IgG1, V domains shown)
VH: QVQLQESGPGLVKPSETLSLTCTVSGGSISSYYWSWIRQPPGKGLEWIGSIYYSGSTNYNPSLKSRVTISVDTSKNQFSLKLSSVTAADTAVYYCARSGTETLFDYWGQGTLVTVSS
VL: DIQMTQSPSSLSASVGDRVTITCQASQDITNYLNWYQQKPGKAPKLLIYDASNLETGVPSRFSGSRSGTDFTFTISSLQPEDIATYYCQQDVNYPPTFGGGTKVEIK
notes: human IgG1
Regarding B13, the MFI with mouse TREM2 on cells was found to be 3750 MFI. Besides, the Kd was 29.4 nM in assay [1] and 0.839 nM in assay [2].

B14: Ab64 (antibody, human IgG1, V domains shown)
VH: EVQLVQSGAEVKKPGESLKISCKGSGYSFTSYWIGWVRQMPGKGLEWMGIIYPGDSDTRYSPSFQGQVTISADKSISTAYLQWSSLKASDTAMYYCARLGRWSSGSTAFDIWGQGTMVTVSS
VL: EIVMTQSPATLSVSPGERATLSCRASQSVSSNLAWYQQKPGQAPRLLIYGASTRATGIPARFSGSGSGTEFTLTISSLQSEDFAVYYCQQDDDGYTFGGGTKVEIK
notes: human IgG1
As for B14, the MFI in the assay with mouse TREM2 on cells is 8680 MFI. For the same molecule, the Kd was found to be 65.7 nM in assay [1] and 0.945 nM in assay [2].

B15: Ab10 (antibody, human IgG1, V domains shown)
VH: EVQLVQSGAEVKKPGESLKISCKGSGYSFTSNWIGWVRQMPGKGLEWMGIIYPGDSDTRYSPSFQGQVTISADKSISTAYLQWSSLKASDTAMYYCAREAGYDYGELAFDIWGQGTMVTVSS
VL: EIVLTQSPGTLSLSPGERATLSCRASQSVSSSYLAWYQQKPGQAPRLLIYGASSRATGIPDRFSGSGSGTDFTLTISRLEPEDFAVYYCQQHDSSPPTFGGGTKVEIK
notes: human IgG1
B15 returned an MFI with mouse TREM2 on cells of 11500 MFI. In addition, the Kd in assay [1] is 4.79 nM; in assay [2], 0.544 nM.

B16: Ab51 (antibody, human IgG1, V domains shown)
VH: QVQLVQSGAEVKKPGASVKVSCKASGYTFTSYYMHWVRQAPGQGLEWMGIINPSGGSTSYAQKFQGRVTMTRDTSTSTVYMELSSLRSEDTAVYYCARGVGGQDYYYMDVWGKGTTVTVSS
VL: DIQMTQSPSSLSASVGDRVTITCRASQSISSYLNWYQQKPGKAPKLLIYAASSLQSGVPSRFSGSGSGTDFTLTISSLQPEDFATYYCQQFDDVFTFGGGTKVEIK
notes: human IgG1
In the case of B16, the Kd in assay [1] was 1.64 nM; in assay [2], 0.284 nM.

B17: Ab4 (antibody, human IgG1, V domains shown)
VH: QVQLVQSGAEVKKPGSSVKVSCKASGGTFSSYAISWVRQAPGQGLEWMGGIIPIFGTASYAQKFQGRVTITADESTSTAYMELSSLRSEDTAVYYCARGVDSIMDYWGQGTLVTVSS
VL: EIVMTQSPATLSVSPGERATLSCRASQSVSSNLAWYQQKPGQAPRLLIYSASTRATGIPARFSGSGSGTEFTLTISSLQSEDFAVYYCQQDHDYPFTFGGGTKVEIK
notes: human IgG1
Molecule B17 returned an MFI in the assay with mouse TREM2 on cells of 295 MFI. In assay [2], this molecule returned a dissociation constant Kd of 0.971 nM. Also, in assay [3], the binding result is recorded as “no binding”.
